Experimental data reported in patent US20200087373A1 (UNIVERSITY OF COPENHAGEN, published 2020).
Values joined by “and” are separate entries in the source; they are usually repeats but may differ in a detail not shown here. Identical values can stand only once. Ends that are not written are not given here. * marks the point of attachment. C16 diacid = O=C(O)CCCCCCCCCCCCCCC(=O)*

B1: AT186 [hGIP(5-30)NH2[L26K]-C16diacid/26] (peptide)
peptide: TFISDYSIAMDKIHQQDFVNWK(C16 diacid)LAQK-NH2
modifications: N-terminus assumed
SMILES: CC[C@H](C)[C@H](NC(=O)[C@H](CO)NC(=O)[C@H](Cc1ccc(O)cc1)NC(=O)[C@H](CC(=O)O)NC(=O)[C@H](CO)NC(=O)[C@@H](NC(=O)[C@H](Cc1ccccc1)NC(=O)[C@@H](N)[C@@H](C)O)[C@@H](C)CC)C(=O)N[C@@H](C)C(=O)N[C@@H](CCSC)C(=O)N[C@@H](CC(=O)O)C(=O)N[C@@H](CCCCN)C(=O)N[C@H](C(=O)N[C@@H](Cc1c[nH]cn1)C(=O)N[C@@H](CCC(N)=O)C(=O)N[C@@H](CCC(N)=O)C(=O)N[C@@H](CC(=O)O)C(=O)N[C@@H](Cc1ccccc1)C(=O)N[C@H](C(=O)N[C@@H](CC(N)=O)C(=O)N[C@@H](Cc1c[nH]c2ccccc12)C(=O)N[C@@H](CCCCNC(=O)CCCCCCCCCCCCCCC(=O)O)C(=O)N[C@@H](CC(C)C)C(=O)N[C@@H](C)C(=O)N[C@@H](CCC(N)=O)C(=O)N[C@@H](CCCCN)C(N)=O)C(C)C)[C@@H](C)CC
B2: AT187 [hGIP(5-30)NH2[L27K]-C16diacid/27] (peptide)
peptide: TFISDYSIAMDKIHQQDFVNWLK(C16 diacid)AQK-NH2
modifications: N-terminus assumed
SMILES: CC[C@H](C)[C@H](NC(=O)[C@H](CO)NC(=O)[C@H](Cc1ccc(O)cc1)NC(=O)[C@H](CC(=O)O)NC(=O)[C@H](CO)NC(=O)[C@@H](NC(=O)[C@H](Cc1ccccc1)NC(=O)[C@@H](N)[C@@H](C)O)[C@@H](C)CC)C(=O)N[C@@H](C)C(=O)N[C@@H](CCSC)C(=O)N[C@@H](CC(=O)O)C(=O)N[C@@H](CCCCN)C(=O)N[C@H](C(=O)N[C@@H](Cc1c[nH]cn1)C(=O)N[C@@H](CCC(N)=O)C(=O)N[C@@H](CCC(N)=O)C(=O)N[C@@H](CC(=O)O)C(=O)N[C@@H](Cc1ccccc1)C(=O)N[C@H](C(=O)N[C@@H](CC(N)=O)C(=O)N[C@@H](Cc1c[nH]c2ccccc12)C(=O)N[C@@H](CC(C)C)C(=O)N[C@@H](CCCCNC(=O)CCCCCCCCCCCCCCC(=O)O)C(=O)N[C@@H](C)C(=O)N[C@@H](CCC(N)=O)C(=O)N[C@@H](CCCCN)C(N)=O)C(C)C)[C@@H](C)CC
B3: AT189 [hGIP(5-30)NH2[Q29K]-C16diacid/29] (peptide)
peptide: TFISDYSIAMDKIHQQDFVNWLLAK(C16 diacid)K-NH2
modifications: N-terminus assumed
SMILES: CC[C@H](C)[C@H](NC(=O)[C@H](CO)NC(=O)[C@H](Cc1ccc(O)cc1)NC(=O)[C@H](CC(=O)O)NC(=O)[C@H](CO)NC(=O)[C@@H](NC(=O)[C@H](Cc1ccccc1)NC(=O)[C@@H](N)[C@@H](C)O)[C@@H](C)CC)C(=O)N[C@@H](C)C(=O)N[C@@H](CCSC)C(=O)N[C@@H](CC(=O)O)C(=O)N[C@@H](CCCCN)C(=O)N[C@H](C(=O)N[C@@H](Cc1c[nH]cn1)C(=O)N[C@@H](CCC(N)=O)C(=O)N[C@@H](CCC(N)=O)C(=O)N[C@@H](CC(=O)O)C(=O)N[C@@H](Cc1ccccc1)C(=O)N[C@H](C(=O)N[C@@H](CC(N)=O)C(=O)N[C@@H](Cc1c[nH]c2ccccc12)C(=O)N[C@@H](CC(C)C)C(=O)N[C@@H](CC(C)C)C(=O)N[C@@H](C)C(=O)N[C@@H](CCCCNC(=O)CCCCCCCCCCCCCCC(=O)O)C(=O)N[C@@H](CCCCN)C(N)=O)C(C)C)[C@@H](C)CC
B4: AT156 [hGIP(5-30)NH2[H18K]-C16diacid/18] (peptide)
peptide: TFISDYSIAMDKIK(C16 diacid)QQDFVNWLLAQK-NH2
modifications: N-terminus assumed
SMILES: CC[C@H](C)[C@H](NC(=O)[C@H](CO)NC(=O)[C@H](Cc1ccc(O)cc1)NC(=O)[C@H](CC(=O)O)NC(=O)[C@H](CO)NC(=O)[C@@H](NC(=O)[C@H](Cc1ccccc1)NC(=O)[C@@H](N)[C@@H](C)O)[C@@H](C)CC)C(=O)N[C@@H](C)C(=O)N[C@@H](CCSC)C(=O)N[C@@H](CC(=O)O)C(=O)N[C@@H](CCCCN)C(=O)N[C@H](C(=O)N[C@@H](CCCCNC(=O)CCCCCCCCCCCCCCC(=O)O)C(=O)N[C@@H](CCC(N)=O)C(=O)N[C@@H](CCC(N)=O)C(=O)N[C@@H](CC(=O)O)C(=O)N[C@@H](Cc1ccccc1)C(=O)N[C@H](C(=O)N[C@@H](CC(N)=O)C(=O)N[C@@H](Cc1c[nH]c2ccccc12)C(=O)N[C@@H](CC(C)C)C(=O)N[C@@H](CC(C)C)C(=O)N[C@@H](C)C(=O)N[C@@H](CCC(N)=O)C(=O)N[C@@H](CCCCN)C(N)=O)C(C)C)[C@@H](C)CC
B5: AT168 [hGIP(5-30)NH2[F6K]-C16diacid/6] (peptide)
peptide: TKISDYSIAMDKIHQQDFVNWLLAQK
modifications: C16-diacid (1,16-hexadecanedioic acid) on Lys at position 6 in GIP numbering (residue 2 of the entry); C-terminal amide
B6: AT169 [hGIP(5-30)NH2[I7K]-C16diacid/7] (peptide)
peptide: TFK(C16 diacid)SDYSIAMDKIHQQDFVNWLLAQK-NH2
modifications: N-terminus assumed
SMILES: CC[C@H](C)[C@H](NC(=O)[C@H](CO)NC(=O)[C@H](Cc1ccc(O)cc1)NC(=O)[C@H](CC(=O)O)NC(=O)[C@H](CO)NC(=O)[C@H](CCCCNC(=O)CCCCCCCCCCCCCCC(=O)O)NC(=O)[C@H](Cc1ccccc1)NC(=O)[C@@H](N)[C@@H](C)O)C(=O)N[C@@H](C)C(=O)N[C@@H](CCSC)C(=O)N[C@@H](CC(=O)O)C(=O)N[C@@H](CCCCN)C(=O)N[C@H](C(=O)N[C@@H](Cc1c[nH]cn1)C(=O)N[C@@H](CCC(N)=O)C(=O)N[C@@H](CCC(N)=O)C(=O)N[C@@H](CC(=O)O)C(=O)N[C@@H](Cc1ccccc1)C(=O)N[C@H](C(=O)N[C@@H](CC(N)=O)C(=O)N[C@@H](Cc1c[nH]c2ccccc12)C(=O)N[C@@H](CC(C)C)C(=O)N[C@@H](CC(C)C)C(=O)N[C@@H](C)C(=O)N[C@@H](CCC(N)=O)C(=O)N[C@@H](CCCCN)C(N)=O)C(C)C)[C@@H](C)CC
B7: AT170 [hGIP(5-30)NH2[S8K]-C16diacid/8] (peptide)
peptide: TFIK(C16 diacid)DYSIAMDKIHQQDFVNWLLAQK-NH2
modifications: N-terminus assumed
SMILES: CC[C@H](C)[C@H](NC(=O)[C@H](CO)NC(=O)[C@H](Cc1ccc(O)cc1)NC(=O)[C@H](CC(=O)O)NC(=O)[C@H](CCCCNC(=O)CCCCCCCCCCCCCCC(=O)O)NC(=O)[C@@H](NC(=O)[C@H](Cc1ccccc1)NC(=O)[C@@H](N)[C@@H](C)O)[C@@H](C)CC)C(=O)N[C@@H](C)C(=O)N[C@@H](CCSC)C(=O)N[C@@H](CC(=O)O)C(=O)N[C@@H](CCCCN)C(=O)N[C@H](C(=O)N[C@@H](Cc1c[nH]cn1)C(=O)N[C@@H](CCC(N)=O)C(=O)N[C@@H](CCC(N)=O)C(=O)N[C@@H](CC(=O)O)C(=O)N[C@@H](Cc1ccccc1)C(=O)N[C@H](C(=O)N[C@@H](CC(N)=O)C(=O)N[C@@H](Cc1c[nH]c2ccccc12)C(=O)N[C@@H](CC(C)C)C(=O)N[C@@H](CC(C)C)C(=O)N[C@@H](C)C(=O)N[C@@H](CCC(N)=O)C(=O)N[C@@H](CCCCN)C(N)=O)C(C)C)[C@@H](C)CC

Legend:
human GIP receptor [1] = molecular target: T1, human GIP receptor (human, UniProt P48546 22-466); test: cell-based or functional assay
T1 sequence (looked up): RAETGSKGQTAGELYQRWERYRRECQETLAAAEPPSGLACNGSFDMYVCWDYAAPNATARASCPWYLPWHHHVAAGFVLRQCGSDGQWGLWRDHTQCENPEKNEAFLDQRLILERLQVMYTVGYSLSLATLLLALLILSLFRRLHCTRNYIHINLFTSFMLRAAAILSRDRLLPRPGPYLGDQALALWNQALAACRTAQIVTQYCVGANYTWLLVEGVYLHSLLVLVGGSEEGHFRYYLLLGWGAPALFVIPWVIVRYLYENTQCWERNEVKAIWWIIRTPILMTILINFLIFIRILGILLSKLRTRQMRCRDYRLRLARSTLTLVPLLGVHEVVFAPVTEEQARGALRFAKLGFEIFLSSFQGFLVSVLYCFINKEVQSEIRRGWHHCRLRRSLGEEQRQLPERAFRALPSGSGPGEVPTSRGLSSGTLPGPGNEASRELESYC

human GIP receptor [2] = molecular target: T1, human GIP receptor; test: 125I-hGIP competition binding, COS-7/hGIPR, 2% HSA;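 further: nonspecific binding defined as radioligand binding to untransfected cells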
Description: (§1) After incubation, the cells were washed twice in ice-cold binding buffer (+/−2% HSA) and lysed using 200 mM NaOH with 1% SDS for 30 min. Nonspecific binding was determined as the binding of radioactive ligand to untransfected cells.

human GIP receptor [3] = molecular target: T1, human GIP receptor; test: 125I-hGIP competition binding, COS-7/hGIPR, 0.1% casein;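 further: nonspecific binding defined as radioligand binding measured on untransfected cells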
Description: as §1

human GIP receptor [4] = molecular target: T1, human GIP receptor; test: 125I-hGIP competition binding, COS-7 cells expressing hGIPR;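 further: nonspecific binding taken as radioligand bound by untransfected cells, binding buffer with or without 2% HSA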
Description: as §1

human GIP receptor [5] = molecular target: T1, human GIP receptor; test: IC50 with 2% HSA over IC50 with 0.1% casein, 125I-hGIP competition, COS-7/hGIPR
Description: as §1

human GIP receptor [6] = molecular target: T2, human GIP receptor (human, UniProt P48546 22-466); test: cell-based or functional assay; remark: listed apart in the source
T2 sequence (looked up): T1 sequence (looked up)

human GIP receptor [7] = molecular target: T2, human GIP receptor; test: 125I-hGIP(1-42) competition binding, COS-7 cells expressing human GIPR, with 2% HSA;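 further: nonspecific signal taken as radioligand bound to untransfected cells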
Description: as §1

human GIP receptor [8] = molecular target: T2, human GIP receptor; test: 125I-hGIP(1-42) competition binding, COS-7 cells expressing human GIPR, without HSA;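 further: nonspecific binding defined as radioligand bound to cells lacking the transfected receptor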
Description: as §1

human GIP receptor [9] = molecular target: T2, human GIP receptor; test: ratio of Ki with 2% HSA to Ki without HSA, 125I-hGIP competition binding on hGIPR COS-7 cells;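 further: nonspecific binding was defined as radioligand signal on cells lacking the receptor transfection, with cell lysates measured after washes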
Description: as §1

Binder	cAMP agonism, Emax (human GIP receptor [1])	cAMP antagonism (human GIP receptor [1]) [nM]	cAMP antagonism, log (human GIP receptor [1]) [log M]	IC50 (human GIP receptor [2]) [nM]	logIC50 (human GIP receptor [2]) [log M]	IC50 (human GIP receptor [3]) [nM]	logIC50 (human GIP receptor [3]) [log M]	IC50 (human GIP receptor [4]) [nM]	log IC50 (human GIP receptor [4])	Fold change HSA (2%)/Casein (0.1%) (human GIP receptor [5]) [fold]	cAMP agonism (human GIP receptor [1]) [nM]	cAMP agonism, EC50 (log) (human GIP receptor [1])	cAMP accumulation IC50 (human GIP receptor [6]) [nM]	cAMP accumulation logIC50 (human GIP receptor [6])	Ki (human GIP receptor [7]) [nM]	Ki (human GIP receptor [8]) [nM]	Fold (Ki + HSA / Ki - HSA) (human GIP receptor [9]) [fold]	cAMP accumulation Fold (fold change from GIP(5-30)NH2) (human GIP receptor [6]) [fold]
B1	0	79	-7.1	331	-6.5	87.1	-7.1	144	-6.8 log M and -6.84 log M	3.8	–	–	–	–	–	–	–	–
B2	25	2380	-5.6	676	-6.2	144	-6.8	26500	-4.6 log M and -4.58 log M	4.7	2380	-6 log M and -5.6 log M	–	–	–	–	–	–
B3	12	79	-7.1	575	-6.2	182	-6.7	118	-6.9 log M and -6.93 log M	3.2	79	-7 log M and -7.1 log M	–	–	–	–	–	–
TFISDYSIAMDKIHQQDFVNWLLAQK-NH2 (Not lipidated) [hGIP(5-30)NH2]	–	–	–	–	–	–	–	–	–	–	–	–	27.5	-7.56 log(M)	6.7	6.3	1	–
B4	–	–	–	–	–	–	–	–	–	–	–	–	24	-7.62 log(M)	29	5	5.8	0.9
B5	–	–	–	–	–	–	–	–	–	–	–	–	148	-6.83 log(M)	97.7	41.3	2.3	5.3
B6	–	–	–	–	–	–	–	–	–	–	–	–	81.3	-7.09 log(M)	126	26.5	4.8	3
B7	–	–	–	–	–	–	–	–	–	–	–	–	891	-6.05 log(M)	1300	594	2.2	32.4
